# From the supplement of paper PMC7125110
# ± gives the standard error. For part of these data: Variants at the floor of the assay were thinned out.
# B1: glmS ribozyme (parent)
# chain: AUAAAAGCGCCAGAACUACAGAAAUGUAGUUGACGAGGAGGAGGUUUAUCGAAUUUUCGGCGGAUGCCUCCAAA
# Assays:
# Conditions in all cases: with glucosamine-6-phosphate
# [1] = variants of: B1; experiment: kcat; higher = faster cleavage; RNA array
# Procedure, shortened: (§1)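 Ribozyme variants carrying barcodes were transcribed in situ on sequenced MiSeq chips by E. coli RNA polymerase and tracked at 37 °C with a hybridised Cy3 probe. They were exposed to 40 μM to 10 mM glucosamine-6-phosphate in HEPES/KCl/Mg(OAc)2 buffer. kobs came from exponential decay fits of normalised per-tile medians, and kcat and KM from weighted Michaelis–Menten fits.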
# [2] = variants of: B1; experiment: KM; higher = weaker cofactor use; RNA array
# Procedure, shortened: as §1
# [3] = variants of: B1; experiment: self-cleavage kobs at 40 uM GlcN6P; higher = faster cleavage; RNA array
# Procedure, shortened: as §1
# [4] = variants of: B1; experiment: self-cleavage kobs at 160 uM GlcN6P; higher = faster cleavage; RNA array
# Procedure, shortened: as §1
# [5] = variants of: B1; experiment: self-cleavage kobs at 2500 uM GlcN6P; higher = faster cleavage; RNA array
# Procedure, shortened: as §1
# [6] = variants of: B1; experiment: self-cleavage kobs at 10000 uM GlcN6P; higher = faster cleavage; RNA array
# Procedure, shortened: as §1
# [7] = variants of: B1; experiment: self-cleavage kobs at 640 uM GlcN6P; higher = faster cleavage; RNA array
# Procedure, shortened: as §1
variant,measurement,setting,value
AUAAAAGCGCCAGAACUACAGAAAUGUAGUUGUCGAGGAGGAGGUUUAUCGAUUUUUCGGCGGAUGCCUCCAAA,kcat,[1],4.9e-05 ± 3.4e-06 s⁻¹
same,KM,[2],2490 ± 550 µM
same,self-cleavage kobs at 40 uM GlcN6P,[3],< 1e-05 s⁻¹
same,self-cleavage kobs at 160 uM GlcN6P,[4],< 1e-05 s⁻¹
same,self-cleavage kobs at 2500 uM GlcN6P,[5],2.34e-05 ± 1e-05 s⁻¹
same,self-cleavage kobs at 10000 uM GlcN6P,[6],3.95e-05 ± 9.4e-06 s⁻¹
AUAAAAGCGCCAGAACUACAGAAAUGUAGUUGACGAGGAGGAGGUUUAUCGAAUUUUCAGCGGAUGCCUCGAAA,kcat,[1],< 1e-05 s⁻¹
same,self-cleavage kobs at 40 uM GlcN6P,[3],< 1e-05 s⁻¹
AUAAAAGCGCCAGAACUACAGAAAUGUAGUUGACGAGGAGGAGGUUUAUUGAAUUUUCGGGGGAUGCCUCCAAA,kcat,[1],1.39e-05 ± 3.3e-06 s⁻¹
AUAAAAGCGCCAGAACUACAGAAAUGUAGUUGACGAGGUGGAGGUUUAUCGAGUUUUCGGCGGAUGGCUCCAAA,kcat,[1],0.00494 ± 0.00087 s⁻¹
same,KM,[2],963 ± 280 µM
same,self-cleavage kobs at 40 uM GlcN6P,[3],0.000219 ± 3.9e-05 s⁻¹
same,self-cleavage kobs at 640 uM GlcN6P,[7],0.00186 ± 0.00023 s⁻¹
same,self-cleavage kobs at 2500 uM GlcN6P,[5],0.00346 ± 0.00056 s⁻¹
same,self-cleavage kobs at 10000 uM GlcN6P,[6],0.00612 ± 0.0016 s⁻¹
AUAAAAGCGCCAGAACUACAGAAAUGUAGUUAACGAGGAGGAGGUUUAUCGAAUUUUCGGCGGUUGCCUCCAAA,kcat,[1],< 1e-05 s⁻¹
same,self-cleavage kobs at 40 uM GlcN6P,[3],< 1e-05 s⁻¹
same,self-cleavage kobs at 160 uM GlcN6P,[4],< 1e-05 s⁻¹
same,self-cleavage kobs at 640 uM GlcN6P,[7],< 1e-05 s⁻¹
AUAAAAGCGCCAGAACUACAGAAAUGUAGUUGACGAGGAGGAGGUUUAUCGAAUUUUCGGGCGGAUGCUCCAAA,kcat,[1],1.06e-05 ± 1.8e-06 s⁻¹
same,self-cleavage kobs at 640 uM GlcN6P,[7],< 1e-05 s⁻¹
same,self-cleavage kobs at 10000 uM GlcN6P,[6],< 1e-05 s⁻¹
AUAAAAGCGCCAGAACUACAGAAAUGUAUUUGACGAGGAGGAGGUUUAUCGAAUUUUCGGCGGAUGGCUCCAAA,kcat,[1],0.000311 ± 6.2e-05 s⁻¹
same,KM,[2],3390 ± 1100 µM
same,self-cleavage kobs at 160 uM GlcN6P,[4],2.38e-05 ± 1e-05 s⁻¹
same,self-cleavage kobs at 640 uM GlcN6P,[7],5.43e-05 ± 5.8e-06 s⁻¹
same,self-cleavage kobs at 2500 uM GlcN6P,[5],0.000111 ± 1.3e-05 s⁻¹
same,self-cleavage kobs at 10000 uM GlcN6P,[6],0.000251 ± 2.4e-05 s⁻¹
AUAAAAGCGCCAGAACUACAGAAAUGUAGUUCACGAGGAGGAGGUUUAUCGAAUUUUCGGCGGAUGUCUCCAAA,kcat,[1],2.59e-05 ± 7.6e-07 s⁻¹
same,KM,[2],885 ± 190 µM
same,self-cleavage kobs at 10000 uM GlcN6P,[6],2.39e-05 ± 5.6e-06 s⁻¹
AUAAAAGCGCCAAAACUACAGAAAUGUAGUUGACGAGGAGGAGGUUUAUCGAAUUUUCGGCGGAUGCUUCCAAA,kcat,[1],6.42e-05 ± 2.2e-06 s⁻¹
same,KM,[2],234 ± 85 µM
same,self-cleavage kobs at 640 uM GlcN6P,[7],5.07e-05 ± 1.2e-05 s⁻¹
same,self-cleavage kobs at 2500 uM GlcN6P,[5],5.81e-05 ± 9e-06 s⁻¹
same,self-cleavage kobs at 10000 uM GlcN6P,[6],6.26e-05 ± 5.5e-06 s⁻¹
AUAAAAGCACCUGAACUACAGAAAUGUAGUUGACGAGGAGGAGGUUUAUCGAAUUUUCGGCGGAUGCCUCCAAA,kcat,[1],5.42e-05 ± 3.1e-06 s⁻¹
same,self-cleavage kobs at 160 uM GlcN6P,[4],< 1e-05 s⁻¹
same,self-cleavage kobs at 10000 uM GlcN6P,[6],2.41e-05 ± 1e-05 s⁻¹
